Measurements taken from publication PMC7608589, “Divergent architecture of the heterotrimeric NatC complex explains N-terminal acetylation of cognate substrates” (Nature Communications, 2020).

T1: NatC WT complex (Naa30ΔC17, full-length Naa35, Naa38ΔC11) (S. cerevisiae, UniProt Q03503 1-159; Q02197 1-733; P23059 1-77)
T1 construct: Naa30, catalytic subunit of NatC, S. cerevisiae, residues 1–159; Naa38, small auxiliary subunit of NatC, S. cerevisiae, residues 1–77; also called heterotrimeric NatC complex; not shown: His6, N-terminal, cleaved; copies: + +
T1 sequence (looked up) 1: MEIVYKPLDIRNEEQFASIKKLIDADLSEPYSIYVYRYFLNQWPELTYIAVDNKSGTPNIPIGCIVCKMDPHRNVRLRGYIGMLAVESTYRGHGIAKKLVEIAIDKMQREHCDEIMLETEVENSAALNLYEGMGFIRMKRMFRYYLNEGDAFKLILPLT
T1 sequence (looked up) 2: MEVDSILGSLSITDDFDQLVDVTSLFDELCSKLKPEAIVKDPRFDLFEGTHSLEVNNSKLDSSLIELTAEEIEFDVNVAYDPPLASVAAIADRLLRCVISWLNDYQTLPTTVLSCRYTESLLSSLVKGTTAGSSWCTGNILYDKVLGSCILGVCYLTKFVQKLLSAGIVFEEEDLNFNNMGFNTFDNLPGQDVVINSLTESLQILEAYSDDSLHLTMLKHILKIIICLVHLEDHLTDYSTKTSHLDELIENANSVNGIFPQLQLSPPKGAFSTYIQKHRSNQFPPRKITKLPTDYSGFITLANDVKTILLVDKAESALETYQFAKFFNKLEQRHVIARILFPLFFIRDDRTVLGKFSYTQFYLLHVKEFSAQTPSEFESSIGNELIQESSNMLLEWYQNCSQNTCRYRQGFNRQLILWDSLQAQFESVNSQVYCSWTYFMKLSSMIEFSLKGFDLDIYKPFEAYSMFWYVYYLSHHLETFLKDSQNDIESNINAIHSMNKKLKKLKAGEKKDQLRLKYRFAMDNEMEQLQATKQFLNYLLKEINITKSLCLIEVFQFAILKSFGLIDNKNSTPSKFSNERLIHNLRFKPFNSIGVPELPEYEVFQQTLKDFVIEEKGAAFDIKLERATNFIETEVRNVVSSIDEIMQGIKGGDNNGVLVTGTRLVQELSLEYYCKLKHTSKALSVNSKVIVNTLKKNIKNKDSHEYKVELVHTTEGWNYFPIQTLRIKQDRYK
T1 sequence (looked up) 3: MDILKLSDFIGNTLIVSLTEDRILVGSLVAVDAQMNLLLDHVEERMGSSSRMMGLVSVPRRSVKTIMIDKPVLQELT

B1: NatC WT (Naa30ΔC17, full-length Naa35, Naa38ΔC11) (Saccharomyces cerevisiae S288C) (protein)
chain: MEIVYKPLDIRNEEQFASIKKLIDADLSEPYSIYVYRYFLNQWPELTYIAVDNKSGTPNIPIGCIVCKMDPHRNVRLRGYIGMLAVESTYRGHGIAKKLVEIAIDKMQREHCDEIMLETEVENSAALNLYEGMGFIRMKRMFRYYLNEGDAFKLILPLT
notes: heterotrimer co-expressed in E. coli BL21(DE3) from pRSFDuet-1; Naa30 lacks 17 and Naa38 lacks 11 C-terminal residues; His6-tag on Naa35 cut by HRV 3C; with N-alpha-acetyltransferase 35, NatC auxiliary subunit; N-alpha-acetyltransferase 38, NatC auxiliary subunit
B2: Gag peptide (MLRFVGSRRR) (peptide)
peptide: MLRFVGSRRR
notes: the N-terminal five residues of the major capsid protein (Gag) of the S. cerevisiae virus L-A; GS linker and a triple arginine to facilitate peptide solubility; Only the first six residues were modelled in the crystal; source: synthetic peptide (ProteoGenix)

Key:
[1] = substrate: CC(=O)SCCNC(=O)CCNC(=O)[C@H](O)C(C)(C)COP(=O)(O)OP(=O)(O)OC[C@H]1O[C@@H](n2cnc3c(N)ncnc32)[C@H](O)[C@@H]1OP(=O)(O)O; experiment: Ellman (DTNB) colorimetric acetyltransferase assay, Michaelis-Menten fit; assay type: biochemical, Saccharomyces cerevisiae; details: fixed yArl3 peptide … 1340 µM, 30–500 µM acetyl-CoA, pH 7.5, 25 °C
Excerpt: Ellman (DTNB) colorimetric acetyltransferase assay, Michaelis-Menten fit on NatC WT (Naa30ΔC17, full-length Naa35, Naa38ΔC11)

[2] = target: T1, NatC WT complex (Naa30ΔC17, full-length …); experiment: crystal structure; purified NatC with CoA (1:3) and substrate peptide … (1:5) or … (1:3) added to the crystallization setup; 14.5–16.5% PEG 4000, 150 mM ammonium iodide, 100 mM sodium citrate pH 6.1–6.3; details: both partners purified

Binder | Km [1] [µM] | binding result [2]
B1 | 30 ± 6 | 
B2 |  | binds
